{
  "source": "paper PMC8137935",
  "about": "“Mechanosensitive channel YnaI has lipid-bound extended sensor paddles” (Communications Biology, 2021)",
  "proteins": {"B1": {"name": "YnaI (natural protein, Escherichia coli, UniProt P0AEB5 1-343, looked up)", "chain": "MIAELFTNNALNLVIIFGSCAALILMSFWFRRGNRKRKGFLFHAVQFLIYTIIISAVGSIINYVIENYKLKFITPGVIDFICTSLIAVILTIKLFLLINQFEKQQIKKGRDITSARIMSRIIKITIIVVLVLLYGEHFGMSLSGLLTFGGIGGLAVGMAGKDILSNFFSGIMLYFDRPFSIGDWIRSPDRNIEGTVAEIGWRITKITTFDNRPLYVPNSLFSSISVENPGRMTNRRITTTIGLRYEDAAKVGVIVEAVREMLKNHPAIDQRQTLLVYFNQFADSSLNIMVYCFTKTTVWAEWLAAQQDVYLKIIDIVQSHGADFAFPSQTLYMDNITPPEQGR", "notes": "YnaI, Escherichia coli, full-length, UniProt P0AEB5; in the model residues of TM-2 are built as Ala and N335-R343 have no density; Homoheptamer with co-purified lipids; Cloned into pET52b; also called mechanosensitive channel YnaI; MscS homolog YnaI; source: E. coli BL21(DE3) C43, purified in LMNG (TALON, thrombin cut, TALON flow-through, Superose 6); not shown: His-tag, C-terminal, cleaved"}},
  "target": "the molecule itself",
  "experiment": "cryo-EM structure; purified YnaI in LMNG at ~5 mg/ml, with 3 mM fluorinated Fos-Choline-8 added right before freezing; C7 symmetry imposed; 3.3 Å",
  "data": [
    {"protein": "B1", "values": [
      {"measurement": "stoichiometry N", "value": 7}
    ]}
  ]
}
